This note sets out measurements from the RNAGym collection of RNA variant scans (doi:10.1093/molbev/msab373).

To fix the notation:
B1: Azoarcus group I ribozyme (parent)
chain: GUGCCUUGCGCCGGGAAACCACGCAAGGGAUGGUGUCAAAUUCGGCGAAACCUAAGCGCCCGCCCGGGCGUAUGGCAACGCCGAGCCAAGCUUCGGCGCCUGCGCCGAUGAAGGUGUAGAGACUAGACGGCACCCACCUAAGGCAAACGCUAUGGUGAAGGCAUAGUCCAGGGAGUGGCGAAAGUCACACAAACCGG

Variants of B1 are the subject of this data set. Nature of the data set: reverse-splicing fitness (ratio to wild type); higher = more active; in vitro selection; Mg2+ level not given. In outline: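 An in vitro group I ribozyme library with randomized positions was T7-transcribed and gel-purified. In triplicate, 10 pmol RNA in EPPS pH 7.5 was reacted with 50 pmoles of a 30-nt RNA substrate for 1 h at 37 °C across several added MgCl2 levels (1–48 mM), then stopped with EDTA. Products were reverse transcribed from a substrate-complementary primer, PCR-amplified and sequenced (HiSeq 4000). Fitness is a variant's read proportion after selection over that before, normalised to wild type.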
C82G A111U A120C A145U C150G U176C: the reverse-splicing fitness was determined as 0.00903.

Regarding C82G A111U A120C A145U C150G U176A, the reverse-splicing fitness turned out to be 0.0058.

On to C82G A111U A120C A145G C150A C169U U176C, for which the reverse-splicing fitness turned out to be 0.0159.

As for C82G A111U A120C A145G C150A C169U U176A, the reverse-splicing fitness was determined as 0.0148.

For the variant C82G A111U A120C A145G C150A C169U U176G, the reverse-splicing fitness stood at 0.00802.

Turning to C82G A111U A120G A145C C150A C169G U176A, the reverse-splicing fitness worked out at 0.0229.

For C82G A111U A120G A145C C150A C169G U176C, the reverse-splicing fitness came to 0.0144.

As to C82G A111U A120G A145C C150A C169G U176G, the reverse-splicing fitness worked out at 0.00516.

Regarding C82G A111U A120C C150G C169G U176C, the reverse-splicing fitness is 0.00622.

As for C82G A111U A120C C150G C169G U176G, the reverse-splicing fitness turned out to be 0.00747.

On to C82G A111U A120C C150G C169G U176A, for which the reverse-splicing fitness was determined as 0.00766.

For the variant C82G A111U A120C A145C C150U U176A, the reverse-splicing fitness was 0.0111.

Take C82G A111U A120C A145C C150U U176G: the reverse-splicing fitness is 0.00601.

As for C82G A111U A120C A145C C150U U176C, the reverse-splicing fitness is 0.0178.

As for C82G A111U A120C U176A, the reverse-splicing fitness came to 0.0172.

In the case of C82G A111U A120C U176G, the reverse-splicing fitness came out at 0.00814.

C82G A111U A120C U176C: the reverse-splicing fitness turned out to be 0.0303.

Consider C82G A111G C150A, for which the reverse-splicing fitness came out at 0.0393.

For the variant C82G A111G C150U, the reverse-splicing fitness was 0.199.

On to C82G A111G C150G, for which the reverse-splicing fitness came to 0.0256.

As to C82G A111U A120G A145C C150A, the reverse-splicing fitness was 0.00696.

Turning to C82G A111U A120C A145C C150A C169A U176G, the reverse-splicing fitness was 0.00706.

Consider C82G A111U A120C A145C C150A C169A U176C, for which the reverse-splicing fitness was 0.0121.

Regarding C82G A111U A120C A145C C150A C169A U176A, the reverse-splicing fitness was found to be 0.0162.

Consider C82G A111U A120C A145C C150A C169U U176G, for which the reverse-splicing fitness is 0.00605.

Take C82G A111U A120C A145C C150A C169U U176C: the reverse-splicing fitness is 0.0105.

Regarding C82G A111U A120C A145C C150A C169U U176A, the reverse-splicing fitness amounted to 0.0126.

Take C82G A111U A120C C150G C169G: the reverse-splicing fitness worked out at 0.00753.

As for C82G A111U A120C C150G C169A, the reverse-splicing fitness amounted to 0.00975.

On to C82G A111U A120C C150G C169U, for which the reverse-splicing fitness amounted to 0.0106.

As for C82G A111G C150G C169U U176C, the reverse-splicing fitness worked out at 0.0165.

As for C82G A111G C150G C169U U176G, the reverse-splicing fitness came to 0.008.

On to C82G A111G C150G C169U U176A, for which the reverse-splicing fitness is 0.00973.

For the variant C82G A111U A120C, the reverse-splicing fitness is 0.0483.

C82G A111U A120G: the reverse-splicing fitness is 0.0168.

Consider C82G A111U A120G A145C C150A C169G, for which the reverse-splicing fitness was 0.00827.

In the case of C82G A111U A120G A145C C150A C169A, the reverse-splicing fitness came out at 0.00828.

Consider C82G A111U A120G A145C C150A C169U, for which the reverse-splicing fitness is 0.00694.

With C82G A111U A120C C150A C169A U176G, the reverse-splicing fitness is 0.00867.

Take C82G A111U A120C C150A C169A U176C: the reverse-splicing fitness amounted to 0.0217.

C82G A111U A120C C150A C169A U176A: the reverse-splicing fitness was found to be 0.0237.

Regarding C82G A111U A120C A145C C150U C169U U176A, the reverse-splicing fitness worked out at 0.0127.

For the variant C82G A111U A120C A145C C150U C169U U176C, the reverse-splicing fitness worked out at 0.0118.

Turning to C82G A111U A120C A145C C150U C169U U176G, the reverse-splicing fitness is 0.00678.

As for C82G A111U A120C C150A U176G, the reverse-splicing fitness turned out to be 0.0115.

Turning to C82G A111U A120C C150A U176C, the reverse-splicing fitness turned out to be 0.0231.

As for C82G A111U A120C C150A U176A, the reverse-splicing fitness is 0.0138.

Turning to C82G A111G C150A U176G, the reverse-splicing fitness came out at 0.0174.

Turning to C82G A111G C150A U176C, the reverse-splicing fitness turned out to be 0.0385.

As for C82G A111G C150A U176A, the reverse-splicing fitness stood at 0.0337.

Regarding C82G A111U A120C A145G U176A, the reverse-splicing fitness is 0.0173.

As to C82G A111U A120C A145G U176C, the reverse-splicing fitness turned out to be 0.0311.

For C82G A111U A120C A145G U176G, the reverse-splicing fitness is 0.00743.

Regarding C82G A111G C169A U176A, the reverse-splicing fitness was determined as 0.0162.

With C82G A111G C169A U176G, the reverse-splicing fitness is 0.00537.

Turning to C82G A111G C169A U176C, the reverse-splicing fitness came to 0.0224.

C82G A111U A120C A145U C150U C169U U176C: the reverse-splicing fitness turned out to be 0.0137.

In the case of C82G A111U A120C A145U C150U C169U U176G, the reverse-splicing fitness was determined as 0.00575.

For the variant C82G A111U A120C A145U C150U C169U U176A, the reverse-splicing fitness is 0.0134.

For C82G A111U A120C C150U C169A U176A, the reverse-splicing fitness was found to be 0.0158.

In the case of C82G A111U A120C C150U C169A U176G, the reverse-splicing fitness is 0.00644.

In the case of C82G A111U A120C C150U C169A U176C, the reverse-splicing fitness was 0.0138.

Turning to C82G A111U A120C A145U C169U U176A, the reverse-splicing fitness turned out to be 0.0149.

Consider C82G A111U A120C A145U C169U U176G, for which the reverse-splicing fitness was found to be 0.00499.

Take C82G A111U A120C A145U C169U U176C: the reverse-splicing fitness is 0.0158.

For the variant C82G A111U A120G A145C C150A C169U U176A, the reverse-splicing fitness was determined as 0.0211.

As to C82G A111U A120C A145C C150G C169G U176C, the reverse-splicing fitness stood at 0.00909.

Take C82G A111U A120C A145C C150G C169G U176G: the reverse-splicing fitness is 0.00606.

Consider C82G A111U A120C A145C C150G C169G U176A, for which the reverse-splicing fitness turned out to be 0.0106.

C82G A111U A120C A145C C150A: the reverse-splicing fitness was 0.0109.

In the case of C82G A111U A120C A145C C150G, the reverse-splicing fitness was found to be 0.0104.

C82G A111U A120C A145C C150U: the reverse-splicing fitness was 0.0168.

As to C82G A111U A120C A145G C150G U176A, the reverse-splicing fitness came to 0.00813.

Take C82G A111U A120C A145G C150G U176G: the reverse-splicing fitness was found to be 0.00789.

With C82G A111U A120C A145G C150G U176C, the reverse-splicing fitness is 0.0118.

Take C82G A111U A120C A145U C150U C169A: the reverse-splicing fitness worked out at 0.0102.

C82G A111U A120C A145U C150U C169U: the reverse-splicing fitness is 0.0129.

Consider C82G A111U A120C A145U C150U C169G, for which the reverse-splicing fitness is 0.00939.

In the case of C82G A111U A120C A145U C150A C169U, the reverse-splicing fitness is 0.00991.

As to C82G A111U A120C A145U C150A C169G, the reverse-splicing fitness was 0.00901.

Turning to C82G A111U A120C A145U C150A C169A, the reverse-splicing fitness worked out at 0.0103.

For C82G A111U A120G A145C C150A C169A U176G, the reverse-splicing fitness came to 0.00583.

In the case of C82G A111U A120G A145C C150A C169A U176A, the reverse-splicing fitness was determined as 0.0145.

In the case of C82G A111U A120G A145C C150A C169A U176C, the reverse-splicing fitness was determined as 0.00752.
